Reference: paper PMC5379923

Biological target: monobody L3 E29Q labeled with EDANS at A12C
Assay: fluorescence polarisation

B1: Fluc homologue from Bordetella pertussis, Bpe (natural protein)
chain: MLTYAPLNFIAIGIGATLGAWLRWVLGLRLNGAGWPWGTLTANLVGGYLIGVMVALIASHPEWPAWIRLAAVTGFLGGLTTFSTFSAETVDMLERGVYATAAAYAGASLAGSLAMTGLGLATVRLLLR
In the case of B1, the Kd is reported as 0.15 µM.
